This is an account of results in patent publication US20070203325A1 (published 2007).

One assay has as its target GST-Impα (Rch1) (human, UniProt P52292 1-529). Put plainly: GST pull-down of in vitro translated 35S-labelled protein (0.25% NP40), autoradiography.
The target of another assay is T1, GST-impβ (UniProt Q14974 1-876).
T1 construct: also called Imps
The assay is described as above.

T1 sequence (Q14974 whole entry): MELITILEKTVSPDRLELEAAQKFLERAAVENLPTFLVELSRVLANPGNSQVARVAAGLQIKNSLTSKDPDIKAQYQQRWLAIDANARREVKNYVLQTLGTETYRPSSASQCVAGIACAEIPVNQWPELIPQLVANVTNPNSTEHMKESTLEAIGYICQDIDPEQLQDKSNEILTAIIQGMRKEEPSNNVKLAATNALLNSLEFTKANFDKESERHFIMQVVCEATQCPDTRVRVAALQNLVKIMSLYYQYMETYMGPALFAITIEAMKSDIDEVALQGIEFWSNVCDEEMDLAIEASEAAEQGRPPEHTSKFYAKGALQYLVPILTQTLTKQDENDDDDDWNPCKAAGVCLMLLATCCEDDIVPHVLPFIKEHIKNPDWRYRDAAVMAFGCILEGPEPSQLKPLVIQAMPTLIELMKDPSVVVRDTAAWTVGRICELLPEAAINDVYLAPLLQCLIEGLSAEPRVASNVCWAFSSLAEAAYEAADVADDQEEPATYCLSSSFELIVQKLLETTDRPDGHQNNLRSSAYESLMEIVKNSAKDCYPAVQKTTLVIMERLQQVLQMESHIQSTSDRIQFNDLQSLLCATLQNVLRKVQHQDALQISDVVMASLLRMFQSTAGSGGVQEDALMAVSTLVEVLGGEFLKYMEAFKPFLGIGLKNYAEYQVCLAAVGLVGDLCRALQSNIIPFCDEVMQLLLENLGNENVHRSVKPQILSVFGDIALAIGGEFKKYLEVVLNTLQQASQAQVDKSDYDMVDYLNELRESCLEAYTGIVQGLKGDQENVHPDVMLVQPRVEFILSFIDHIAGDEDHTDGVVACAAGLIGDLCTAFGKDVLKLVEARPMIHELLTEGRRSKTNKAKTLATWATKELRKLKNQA

B1: T7-CAT (enzyme)
chain: MEKKITGYTTVDISQWHRKEHFEAFQSVAQCTYNQTVQLDITAFLKTVKKNKHKFYPAFIHILARLMNAHPEFRMAMKDGELVIWDSVHPCYTVFHEQTETFSSLWSEYHDDFRQFLHIYSQDVACYGENLAYFPKGFIENMFFVSANPWVSFTSFDLNVANMDNFFAPVFTMGKYYTQGDKVLMPLAIQVHHAVCDGFHVGRMLNELQQYCDEWQGGA
In the case of B1, the binding result with GST-Impα (Rch1) and with GST-impβ was “no binding” in each case.
